From the supplement of paper PMC9233669
Variants at the floor of the assay were thinned out.

Tests used:
[1] = system: biotinyl-Trp-oxazolone; assay: self-aminoacylation, catalytic enhancement (BWO) (fold over background); higher = more active; k-Seq, kA / k0A0; sequences stand for … in GGGAAUGGAUCCACAUCUACGAAUUC…UUCACUGCAGACUUGACGAAGCUG
Method in brief: (§1)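 Working in 50 μL HEPES/NaCl/KCl/MgCl2/CaCl2 buffer with 5% acetonitrile at pH 6.9–7.0, mutagenized RNA pools (0.43 μM; 21-nt variable region) were reacted with 2–1250 μM of each biotinyl-aminoacyl-oxazolone for 90 minutes at room temperature. Streptavidin capture followed, with quantification by triplicate qPCR and Illumina sequencing. Catalytic enhancement is reported as median kA over the uncatalyzed rate, the low-activity peak of a bimodal Gaussian fit to the data.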

[2] = system: biotinyl-Met-oxazolone; assay: self-aminoacylation, catalytic enhancement (BMO) (fold over background); higher = more active; k-Seq, kA / k0A0; sequences stand for … in GGGAAUGGAUCCACAUCUACGAAUUC…UUCACUGCAGACUUGACGAAGCUG
Method in brief: as §1

[3] = system: biotinyl-Ile-oxazolone; assay: self-aminoacylation, catalytic enhancement (BIO) (fold over background); higher = more active; k-Seq, kA / k0A0; sequences stand for … in GGGAAUGGAUCCACAUCUACGAAUUC…UUCACUGCAGACUUGACGAAGCUG
Method in brief: as §1

[4] = system: biotinyl-Leu-oxazolone; assay: self-aminoacylation, catalytic enhancement (BLO) (fold over background); higher = more active; k-Seq, kA / k0A0; sequences stand for … in GGGAAUGGAUCCACAUCUACGAAUUC…UUCACUGCAGACUUGACGAAGCUG
Method in brief: as §1

[5] = system: biotinyl-Phe-oxazolone; assay: self-aminoacylation, catalytic enhancement (BFO) (fold over background); higher = more active; k-Seq, kA / k0A0; sequences stand for … in GGGAAUGGAUCCACAUCUACGAAUUC…UUCACUGCAGACUUGACGAAGCUG
Method in brief: as §1

[6] = system: biotinyl-Val-oxazolone; assay: self-aminoacylation, catalytic enhancement (BVO) (fold over background); higher = more active; k-Seq, kA / k0A0; sequences stand for … in GGGAAUGGAUCCACAUCUACGAAUUC…UUCACUGCAGACUUGACGAAGCUG
Method in brief: as §1

| Sequence | self-aminoacylation [1] | self-aminoacylation [2] | self-aminoacylation [3] | self-aminoacylation [4] | self-aminoacylation [5] | self-aminoacylation [6] |
| --- | --- | --- | --- | --- | --- | --- |
| AUACUUCAAUCAAUCGGUCUG [Fam1A.1 aminoacylation ribozyme variant] | 6.62 | 1.19 | 1.11 | 1.33 | 8.53 | 1.06 |
| ACACACUUCAAGCAAACGGUC [Fam1B.1 aminoacylation ribozyme variant] | 1.13 | 0.749 | 1.02 | 0.941 | 1.56 | 1.04 |
| CUACUUCCAACAAUAGGUCUG [Fam1A.1 aminoacylation ribozyme variant] | 0.417 | 0.562 | 0.744 | 0.578 | 0.659 | 0.688 |
| AUUCACCUAGGACUUCGGGUG [Fam2.2 aminoacylation ribozyme variant] | 3.48 | 2.75 | 2.5 | 3.6 | 19.1 | 2.43 |
| CCACACUUGAAGCAAUUGGUC [Fam1B.1 aminoacylation ribozyme variant] | 0.386 | 0.63 | 0.643 | 0.539 | 0.359 | 0.587 |
| AUUCGCCUAGGUCAUCGGCUG [Fam2.2 aminoacylation ribozyme variant] | 2.11 | 1.95 | 2.08 | 2.16 | 6.51 | 2.16 |
| AUUACCCUGAGCAUCGAGUGA [Fam2.1 aminoacylation ribozyme variant] | 4.96 | 4.43 | 2.06 | 3.99 | 8.97 | 2.45 |
| CCACACUUCAAGCAAUCGGUG [Fam1B.1 aminoacylation ribozyme variant] | 5.45 | 5.19 | 3.68 | 7.2 | 17.1 | 3.68 |
| AAGUUUGCUACUUGUCGCAAG [Fam3.1 aminoacylation ribozyme variant] | 1.21 | 0.928 | 1.05 | 1.06 | 1.01 | 1.12 |
| ACACACCUCAAGCAAUCGGUC [Fam1B.1 aminoacylation ribozyme variant] | 0.883 | 0.58 | 0.848 | 0.763 | 1.19 | 0.927 |
| AUUCACCUAGAGCAUCGGGUG [Fam2.2 aminoacylation ribozyme variant] | 1.64 | 2.34 | 1.76 | 2.43 | 12.4 | 2.06 |
| AUUACCUUGGUUAUCGAGUGA [Fam2.1 aminoacylation ribozyme variant] | 9.73 | 8.15 | 3.66 | 7.92 | 44.2 | 4.03 |
| CCUCACUUUAAGCAAUCGGUC [Fam1B.1 aminoacylation ribozyme variant] | 0.683 | 0.544 | 0.734 | 0.619 | 1.2 | 0.688 |
| AUUCACCAAGGUCAUCGGAUG [Fam2.2 aminoacylation ribozyme variant] | 0.726 | 0.703 | 1.09 | 0.794 | 1.12 | 1.17 |
| AUGACCCUGGACAUCGAGUGA [Fam2.1 aminoacylation ribozyme variant] | 5.26 | 5.12 | 2.27 | 3.95 | 15.9 | 2.11 |
| AUGACCCUGGUCCUCGAGUGA [Fam2.1 aminoacylation ribozyme variant] | 3.81 | 3.2 | 1.88 | 3.2 | 22.1 | 1.77 |
| AUUACCUUGGUCAACGAGUGA [Fam2.1 aminoacylation ribozyme variant] | 6.5 | 6.26 | 3.57 | 6 | 17.5 | 3.54 |
| CCACAAUUCAAGCAAUCGGAC [Fam1B.1 aminoacylation ribozyme variant] | 0.711 | 0.783 | 1.15 | 0.884 | 0.942 | 0.798 |
| AUUACCCUGGUCAUUGGGUGA [Fam2.1 aminoacylation ribozyme variant] | 12.9 | 12.1 | 5.58 | 13.1 | 93.4 | 5.6 |
| AGUACCCUGCUCAUCGAGUGA [Fam2.1 aminoacylation ribozyme variant] | 1.88 | 2.06 | 1.2 | 1.77 | 1.88 | 1.28 |
| AUUACCGUUGUCAUCGAGUGA [Fam2.1 aminoacylation ribozyme variant] | 9.94 | 7.75 | 4.49 | 8.01 | 40.2 | 4.16 |
| AUUCAACUAGGUCAUCGGCUG [Fam2.2 aminoacylation ribozyme variant] | 1.45 | 1.91 | 1.57 | 1.46 | 5.81 | 1.75 |
| AAGUUUGCUAAUAGACGCAUG [Fam3.1 aminoacylation ribozyme variant] | 0.703 | 0.48 | 0.645 | 0.553 | 0.785 | 0.59 |
| AUUACCCUUGUCAUCGAGUCA [Fam2.1 aminoacylation ribozyme variant] | 0.591 | 0.756 | 0.895 | 0.708 | 0.6 | 0.841 |
| AUUCACCUACGACAUCGGGUG [Fam2.2 aminoacylation ribozyme variant] | 3.95 | 3.87 | 2.48 | 5.12 | 24 | 2.28 |
| AAGUUUGCAAAUAGUCGCAAU [Fam3.1 aminoacylation ribozyme variant] | 1.78 | 1.64 | 1.35 | 1.27 | 2.03 | 1.26 |

| Sequence | self-aminoacylation [1] | self-aminoacylation [2] | self-aminoacylation [3] | self-aminoacylation [4] | self-aminoacylation [5] | self-aminoacylation [6] |
| --- | --- | --- | --- | --- | --- | --- |
| CUACUUAAAACAAUCGGUUUG [Fam1A.1 aminoacylation ribozyme variant] | 0.596 | 0.718 | 0.672 | 0.621 | 0.655 | 0.627 |
| AUCACCCUGGUCAUCGAAUGA [Fam2.1 aminoacylation ribozyme variant] | 0.777 | 1.13 | 1.26 | 1.29 | 0.93 | 1.41 |
| AUUUCCCUAGUCAUCGAGUGA [Fam2.1 aminoacylation ribozyme variant] | 7.31 | 6.04 | 3.46 | 6.58 | 31.5 | 4.03 |
| AAGUUUACUAAGAGUCGCAAG [Fam3.1 aminoacylation ribozyme variant] | 1.69 | 1.37 | 1.47 | 1.36 | 1.93 | 1.36 |
| AUUACCAUGGUCCUCGAGUGA [Fam2.1 aminoacylation ribozyme variant] | 4.82 | 4.88 | 2.48 | 5.83 | 29.3 | 2.68 |
| AUUCACCCUGGUCAUCGGGUG [Fam2.2 aminoacylation ribozyme variant] | 10.6 | 10.6 | 5.16 | 11.5 | 71 | 5.5 |
| CCACACUUCAAGCACUUGGUC [Fam1B.1 aminoacylation ribozyme variant] | 0.616 | 0.775 | 0.816 | 0.818 | 1.03 | 0.65 |
| CUACACUUCCAGCAAUCGGUC [Fam1B.1 aminoacylation ribozyme variant] | 0.707 | 0.787 | 1.07 | 1.1 | 0.865 | 1.07 |
| AAGUUUGCAAAUAGUCGCAAA [Fam3.1 aminoacylation ribozyme variant] | 1.21 | 1.52 | 1.67 | 1.79 | 0.845 | 1.62 |
| AUUACCCUGCUCAUCGACUGA [Fam2.1 aminoacylation ribozyme variant] | 0.534 | 0.687 | 0.856 | 0.475 | 0.34 | 0.82 |
| CUCCACUUCAAGCAAUCGGUC [Fam1B.1 aminoacylation ribozyme variant] | 27.6 | 1.27 | 1.37 | 2.07 | 50.4 | 1.45 |
| GAGUUUGCUUAUAGUCGCAAG [Fam3.1 aminoacylation ribozyme variant] | 1.75 | 1.44 | 1.65 | 1.24 | 2.28 | 1.39 |
| CUACUUCAAUCAAUCGGUGUG [Fam1A.1 aminoacylation ribozyme variant] | 4.96 | 1.19 | 1.18 | 1.83 | 7.44 | 1.27 |
| AAGUUUGCUAAUAGUCGUAAU [Fam3.1 aminoacylation ribozyme variant] | 1.13 | 1.19 | 1.19 | 1.07 | 1.24 | 1.23 |
| CCGAACUUCAAGCAAUCGGUC [Fam1B.1 aminoacylation ribozyme variant] | 20.6 | 1.43 | 1.26 | 1.68 | 34.4 | 1.54 |
| AUUACCCUUGGCAUCGAGUGA [Fam2.1 aminoacylation ribozyme variant] | 8.88 | 6 | 2.75 | 6.72 | 31.7 | 3.39 |
| AAGUGUGCUAUUAGUCGCAAG [Fam3.1 aminoacylation ribozyme variant] | 0.997 | 1.36 | 1.29 | 0.947 | 2.19 | 1.43 |
| AUUACCCUGUUCAUAGAGUGA [Fam2.1 aminoacylation ribozyme variant] | 18 | 15.6 | 6.48 | 14.6 | 110 | 6.44 |
| CCGCACUUAAAGCAAUCGGUC [Fam1B.1 aminoacylation ribozyme variant] | 1.15 | 1.1 | 1.13 | 1.05 | 0.932 | 1.25 |
| AUUCACCGAUGUCAUCGGGUG [Fam2.2 aminoacylation ribozyme variant] | 7.35 | 8.67 | 5.59 | 10.8 | 62.7 | 4.63 |
| AUUUCCCUGGUCAUCGGGUGA [Fam2.1 aminoacylation ribozyme variant] | 23.9 | 18.5 | 10.1 | 21.5 | 90.8 | 11.6 |
| CCUCACUUCAAACAAUCGGUC [Fam1B.1 aminoacylation ribozyme variant] | 37.3 | 1.51 | 1.21 | 2.35 | 93.7 | 1.25 |
| AAGUUUGCUAAUAGGCGUAAG [Fam3.1 aminoacylation ribozyme variant] | 0.664 | 0.735 | 0.669 | 0.66 | 0.828 | 0.735 |
| CUAAUUCUAACAAUCGGUCUG [Fam1A.1 aminoacylation ribozyme variant] | 0.474 | 0.652 | 0.751 | 0.624 | 0.731 | 0.714 |
| CUAUUUCAAACAAUCCGUCUG [Fam1A.1 aminoacylation ribozyme variant] | 0.595 | 0.818 | 0.826 | 0.715 | 0.946 | 0.735 |
